Test results published in US10781452B2, “FLT3 receptor antagonists for the treatment or the prevention of pain disorders” (INSTITUT NATIONAL DE LA SANTE ET DE LA RECHERCHE MEDICALE …, priority 2010, dated 2020).

Target: T1, full-length hFLT3 (Homo sapiens, UniProt P36888)
T1 construct: host or cells: HEK293T
T1 sequence (P36888 27-993): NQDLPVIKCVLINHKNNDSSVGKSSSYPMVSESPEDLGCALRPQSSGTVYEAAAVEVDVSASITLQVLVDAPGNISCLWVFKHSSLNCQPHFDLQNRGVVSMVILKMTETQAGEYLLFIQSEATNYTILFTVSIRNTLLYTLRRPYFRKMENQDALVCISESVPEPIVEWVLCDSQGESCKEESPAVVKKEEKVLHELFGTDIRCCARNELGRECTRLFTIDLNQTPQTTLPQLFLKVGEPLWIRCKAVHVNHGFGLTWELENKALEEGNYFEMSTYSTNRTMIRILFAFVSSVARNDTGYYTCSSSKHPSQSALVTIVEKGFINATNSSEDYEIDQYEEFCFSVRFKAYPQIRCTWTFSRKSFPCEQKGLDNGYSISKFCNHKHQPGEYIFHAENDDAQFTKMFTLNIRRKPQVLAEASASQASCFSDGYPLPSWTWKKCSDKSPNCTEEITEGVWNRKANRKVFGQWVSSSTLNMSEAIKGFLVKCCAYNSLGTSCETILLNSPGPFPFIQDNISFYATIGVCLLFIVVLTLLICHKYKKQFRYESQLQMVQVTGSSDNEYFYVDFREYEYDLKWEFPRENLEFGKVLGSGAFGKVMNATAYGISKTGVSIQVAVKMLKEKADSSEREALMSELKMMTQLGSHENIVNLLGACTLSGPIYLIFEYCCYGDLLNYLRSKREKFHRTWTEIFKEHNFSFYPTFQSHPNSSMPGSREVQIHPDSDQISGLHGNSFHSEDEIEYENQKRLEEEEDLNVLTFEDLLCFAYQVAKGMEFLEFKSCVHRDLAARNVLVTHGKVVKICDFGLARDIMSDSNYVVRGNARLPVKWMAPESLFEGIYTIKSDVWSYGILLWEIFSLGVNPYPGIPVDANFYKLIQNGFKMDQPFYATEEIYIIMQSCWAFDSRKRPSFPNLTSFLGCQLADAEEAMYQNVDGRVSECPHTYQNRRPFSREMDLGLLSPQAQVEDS
Assay: TR-FRET displacement of Red-FL binding, HEK cells expressing full-length hFLT3
Details: HEK cells expressing full-length hFLT3, 0.5 nM Red-FL
Protocol: The binding of the A3 antibody to full-length hFLT3 and mFLT3 was measured by displacement of extracellular FL binding on recombinant HEK cells by using time-resolved fluorescence resonance energy transfer (TR-FRET).
Chemicals and reagents. The Tag-lite® labeling medium was from Cisbio Bioassays (Condolet, France). The Lumi4-Tb derivative of O6-Benzylguanine was synthesized by Cisbio Bioassays and is commercialized as SNAP-Lumi4-Tb (Cisbio Bioassays, Ref. SSNPTBE).
A recombinant rh-FLT3-L was produced as previously reported (Verstraete K, et al. Efficient production of bioactive recombinant human Flt3 ligand in E. coli. Protein J, 2009 28: 57-65) and labeled with a red fluorescent probe (Red-FL). Poly-L-ornithine (MW of 30,000-70,000 daltons) was from Sigma-Aldrich. The plasmids encoding for the SNAP tagged human FLT3 (pSNAP-hFLT3) or the mouse FLT3 (pSNAP-mFLT3) used for transient transfection was obtained from Cisbio Bioassays. Monoclonal antibodies against FLT3 (8F2) and phosphotyrosine FLT3 (PY969) were purchased from Cell Signaling Technology and labeled with Lumi4-Tb and d2 respectively, by Cisbio.
Cell culture. HEK293T cells, used for binding assays, were maintained in DMEM Glutamax (Invitrogen) supplemented with antibiotics (penicillin 50 U/ml, streptomycin 50 μg/ml) and 10% heat-inactivated Fetal Calf Serum.
Transfection procedures. […]

B1: A3 antibody: human monoclonal antibody against FLT3; VH SEQ ID NO:1, VL SEQ ID NO:2 (antibody, V domains shown)
VH: EVQLVESGGSLVKPGGSLRLSCAASGFTFSNSYMNWVRQAPGKGLEWISDISGSSRDIDYADFVKGRFTISRDNATNSLYLQMNSLRAEDTAVYYCVRSGNSGMDVWGRGTLVTVSS
VL: QSVLTQPASVSGSPGQSITISCAGTSSDVGGGYYVSWYQQHPGKAPKLMIYYDSYRPSGVSNRFSGSKSGNTASLTISGLQAEDEADYYCSSYTNNSTRVFGGGTKLEIK
modifications: Synthetic VH domain of A3; Synthetic VL region of A3
IC50, displacement of FL binding: about 17 μg/ml
